{
  "source": "paper PMC8530329",
  "about": "(2021)",
  "binders": {"B1": {"name": "RBD-chAb-45 (antibody, V domains shown)", "VH": "EVQLQQSGPELVKPGASVKISCKTSGYTFTEYTIYWVKQSLGKSLEWIGGNNPNNDDTTYKQFFKGKATLTVDKSSSTAYMELRSLTSEDSAVYYCARDGYPYYYALDFWGQGTSVTVSS", "VL": "DIVMTQSQKFMSTSVGDRVSVTCKSSQNVGTNVAWYQQKPGQSPKALIYSASYRYSGVPDHFTGSGSGTDFTLTISNVQSADLAEYFCQQYNNYPWTFGGGTKLEIK"}},
  "key": {"[1]": {"biological_target": "T1, SARS-CoV-2 RBD-Flag-His protein (SARS-CoV-2, UniProt P0DTC2 319-541)", "assay": "BLI"}, "[2]": {"biological_target": "T1, SARS-CoV-2 RBD-Flag-His protein", "assay": "BLI", "remark": "listed apart in the source"}},
  "data": [
    {"binder": "B1", "values": [
      {"measurement": "koff", "setting": "[1]", "result": 0.000282, "unit": "s⁻¹"},
      {"measurement": "Kd", "setting": "[2]", "result": 282, "unit": "pM"}
    ]}
  ]
}
